According to patent publication US20260242478A1 (published 2026):

Legend:
Anti-PSMA Fab [1] = biological target: T1, Anti-PSMA Fab; test: clonal phage ELISA; biotinylated PSMA Fab on neutravidin plate, blocking buffer alone; anti-M13 HRP detection;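 note: crude clonal phage supernatants added without washing to wells pretreated with blocking buffer with or without PSMA antigen, short incubation, then washed before detecting bound phage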
T1 construct: also called 006 PSMA Fab
Protocol: (§1) Clonal phage were harvested as crude supernatants and screened via standard ELISAs. […] Prior to the addition of clonal phage. wells were incubated with blocking buffer and PSMA antigen or blocking buffer alone. Without washing or aspirating, clonal phage supernatants were then added to the wells and incubated for a short time. Wells were then washed followed by detection of bound phage using a horse radish conjugated anti-M13 antibody.

Anti-PSMA Fab [2] = biological target: T1, Anti-PSMA Fab; test: clonal phage ELISA; biotinylated PSMA Fab on neutravidin plate, wells pre-incubated with PSMA antigen as competitor; anti-M13 HRP detection;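 note: crude clonal phage supernatants added to antigen-treated wells without a wash, incubated briefly, then bound phage read out via horse radish–conjugated anti-M13 antibody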
Protocol: as §1

PSMA Fab (006 PSMA Fab) [3] = biological target: T2, PSMA Fab (006 PSMA Fab); test: clonal phage ELISA on captured PSMA Fab pre-incubated with PSMA antigen as competitor;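 note: crude clonal phage supernatants added to wells without washing away the PSMA competitor, bound phage detected by HRP-conjugated anti-M13 antibody, reference wells received blocking buffer only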
T2 construct: also called Anti-PSMA Fab
Protocol: as §1

PSMA Fab (006 PSMA Fab) [4] = biological target: T2, PSMA Fab (006 PSMA Fab); test: clonal phage ELISA on biotinylated PSMA Fab captured on neutravidin plates, anti-M13 HRP detection;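 note: crude clonal phage supernatants tested, before phage were added, wells were pretreated with PSMA antigen in blocking buffer or with blocking buffer only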
Protocol: as §1

PSMA Fab (006 PSMA Fab) [5] = biological target: T3, PSMA Fab (006 PSMA Fab) (biotinylated (site not stated)); test: clonal phage ELISA on captured PSMA Fab, wells pre-incubated with PSMA antigen as competitor
T3 construct: also called Anti-PSMA Fab

PSMA Fab (006 PSMA Fab) [6] = biological target: T3, PSMA Fab (006 PSMA Fab); test: clonal phage ELISA on biotinylated PSMA Fab captured on neutravidin plates, anti-M13 HRP detection;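 note: crude clonal phage supernatants tested, before phage were added, wells were pretreated with PSMA antigen in blocking buffer or with blocking buffer only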
Protocol: as §1

PSMA Fab (006 PSMA Fab) [7] = biological target: T4, PSMA Fab (006 PSMA Fab) (biotinylated (site not stated)); test: clonal phage supernatant on captured PSMA Fab pre-incubated with the competitor PSMA antigen, anti-M13-HRP detection
T4 construct: Biotinylated PSMA Fab captured on neutravidin coated plates in the phage ELISA; also called Anti-PSMA Fab; anti-PSMA Fab

PSMA Fab (006 PSMA Fab) [8] = biological target: T4, PSMA Fab (006 PSMA Fab); test: clonal phage supernatant on biotinylated PSMA Fab captured on neutravidin plate, anti-M13-HRP detection;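 note: before phage were added, wells received PSMA antigen in blocking buffer or blocking buffer alone, with no wash in between, followed by a short phage incubation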
Protocol: as §1

B1: Phage-3698 (peptide)
peptide: DVPYCIPSWMCHGF
In the case of B1, the “Phage binding ELISA signal, Anti-PSMA Fab” value (Anti-PSMA Fab [1]) is reported as 1.45 and the “Phage binding ELISA signal, Anti-PSMA Fab in presence of PSMA” value (Anti-PSMA Fab [2]) is reported as 0.249.

B2: Phage-3678 (peptide)
peptide: VIPKCEPKWMCHSL
B2 was tested, and the “Phage binding ELISA signal, Anti-PSMA Fab with PSMA antigen” value (PSMA Fab (006 PSMA Fab) [3]) was 0.0649 and the “Phage binding ELISA signal, Anti-PSMA Fab” value (PSMA Fab (006 PSMA Fab) [4]) was 1.48.

B3: Phage-3670 (peptide-180 library clone) (peptide)
peptide: PELRCHPPWMCTGF
In the case of B3, the “Phage binding ELISA signal, Anti-PSMA Fab in presence of PSMA” value (PSMA Fab (006 PSMA Fab) [5]) is reported as 0.0997 and the “Phage binding ELISA signal, Anti-PSMA Fab” value (PSMA Fab (006 PSMA Fab) [6]) is reported as 1.49.

B4: Phage-3673 (peptide)
peptide: LGKICSPAWMCSGF
For B4, the “Phage binding ELISA signal, Anti-PSMA Fab with PSMA antigen” value (PSMA Fab (006 PSMA Fab) [3]) was 0.0608 and the “Phage binding ELISA signal, Anti-PSMA Fab” value (PSMA Fab (006 PSMA Fab) [4]) was 1.48.

B5: Phage-3671 (peptide-180 library clone) (peptide)
peptide: ISIKCEPQWMCDGL
For B5, the “Phage binding ELISA signal, Anti-PSMA Fab in presence of PSMA” value (PSMA Fab (006 PSMA Fab) [5]) was 0.307 and the “Phage binding ELISA signal, Anti-PSMA Fab” value (PSMA Fab (006 PSMA Fab) [6]) was 1.48.

B6: Phage-3669 (peptide-180 library clone) (peptide)
peptide: GHVYCEPQWMCYGF
In the case of B6, the “Phage binding ELISA signal, Anti-PSMA Fab in presence of PSMA” value (PSMA Fab (006 PSMA Fab) [5]) is reported as 0.0791 and the “Phage binding ELISA signal, Anti-PSMA Fab” value (PSMA Fab (006 PSMA Fab) [6]) is reported as 1.49.

B7: Phage-3684 (peptide)
peptide: ERPACVPMWMCTGL
For B7, the “Phage binding ELISA signal, Anti-PSMA Fab with PSMA antigen” value (PSMA Fab (006 PSMA Fab) [3]) was 0.0929 and the “Phage binding ELISA signal, Anti-PSMA Fab” value (PSMA Fab (006 PSMA Fab) [4]) was 1.47.

B8: Phage-3708 (peptide)
peptide: TDRVCTPAWMCQGL
notes: not shown: pIII filament protein of the bacteriophage
For B8, the “Phage binding ELISA signal, Anti-PSMA Fab in presence of PSMA antigen” value (“Phage binding ELISA signal … of PSMA antigen” for short) (PSMA Fab (006 PSMA Fab) [7]) was 0.0772 and the “Phage binding ELISA signal, Anti-PSMA Fab” value (PSMA Fab (006 PSMA Fab) [8]) was 1.43.

B9: Phage-3704 (peptide)
peptide: GDVRCVPSWMCEGY
notes: as for B8
For B9, the “Phage binding ELISA signal … of PSMA antigen” value (PSMA Fab (006 PSMA Fab) [7]) was 0.0816 and the “Phage binding ELISA signal, Anti-PSMA Fab” value (PSMA Fab (006 PSMA Fab) [8]) was 1.43.

B10: Phage-3676 (peptide)
peptide: PEARCIPMWMCERL
B10 was tested, and the “Phage binding ELISA signal, Anti-PSMA Fab with PSMA antigen” value (PSMA Fab (006 PSMA Fab) [3]) was 0.0885 and the “Phage binding ELISA signal, Anti-PSMA Fab” value (PSMA Fab (006 PSMA Fab) [4]) was 1.48.

B11: Phage-3696 (peptide)
peptide: TMQMCKPAWMCSQL
In the case of B11, the “Phage binding ELISA signal, Anti-PSMA Fab” value (Anti-PSMA Fab [1]) is reported as 1.45 and the “Phage binding ELISA signal, Anti-PSMA Fab in presence of PSMA” value (Anti-PSMA Fab [2]) is reported as 0.0765.

B12: Phage-3692 (peptide)
peptide: DHMMCVPPWMCDGI
B12 was tested, and the “Phage binding ELISA signal, Anti-PSMA Fab” value (Anti-PSMA Fab [1]) was 1.46 and the “Phage binding ELISA signal, Anti-PSMA Fab in presence of PSMA” value (Anti-PSMA Fab [2]) was 0.119.

B13: Phage-3697 (peptide)
peptide: NEKLCVPTWMCDGL
B13 was tested, and the “Phage binding ELISA signal, Anti-PSMA Fab” value (Anti-PSMA Fab [1]) was 1.45 and the “Phage binding ELISA signal, Anti-PSMA Fab in presence of PSMA” value (Anti-PSMA Fab [2]) was 0.0612.

B14: Phage-3674 (peptide)
peptide: GTMKCEPAWMCEGF
With B14 the “Phage binding ELISA signal, Anti-PSMA Fab with PSMA antigen” value (PSMA Fab (006 PSMA Fab) [3]) was 0.106 and the “Phage binding ELISA signal, Anti-PSMA Fab” value (PSMA Fab (006 PSMA Fab) [4]) was 1.48.

B15: Phage-3701 (peptide)
peptide: EVLLCKPSWMCDGF
notes: as for B8
B15 was tested, and the “Phage binding ELISA signal … of PSMA antigen” value (PSMA Fab (006 PSMA Fab) [7]) was 0.185 and the “Phage binding ELISA signal, Anti-PSMA Fab” value (PSMA Fab (006 PSMA Fab) [8]) was 1.44.

B16: Phage-3706 (peptide)
peptide: EIPLCRPEWMCTGL
notes: as for B8
With B16 the “Phage binding ELISA signal … of PSMA antigen” value (PSMA Fab (006 PSMA Fab) [7]) was 0.126 and the “Phage binding ELISA signal, Anti-PSMA Fab” value (PSMA Fab (006 PSMA Fab) [8]) was 1.43.

B17: Phage-3699 (peptide)
peptide: YLHECRPEWMCVGF
In the case of B17, the “Phage binding ELISA signal, Anti-PSMA Fab” value (Anti-PSMA Fab [1]) is reported as 1.45 and the “Phage binding ELISA signal, Anti-PSMA Fab in presence of PSMA” value (Anti-PSMA Fab [2]) is reported as 0.153.

B18: Phage-3681 (peptide)
peptide: PHVVCIPEWMCAGF
B18 was tested, and the “Phage binding ELISA signal, Anti-PSMA Fab with PSMA antigen” value (PSMA Fab (006 PSMA Fab) [3]) was 0.068 and the “Phage binding ELISA signal, Anti-PSMA Fab” value (PSMA Fab (006 PSMA Fab) [4]) was 1.47.

B19: Phage-3688 (peptide)
peptide: VVVQCVPKWMCYGF
In the case of B19, the “Phage binding ELISA signal, Anti-PSMA Fab” value (Anti-PSMA Fab [1]) is reported as 1.47 and the “Phage binding ELISA signal, Anti-PSMA Fab in presence of PSMA” value (Anti-PSMA Fab [2]) is reported as 0.0764.

B20: Phage-3703 (peptide)
peptide: VPRMCIPHWMCEGI
notes: as for B8
For B20, the “Phage binding ELISA signal … of PSMA antigen” value (PSMA Fab (006 PSMA Fab) [7]) was 0.0731 and the “Phage binding ELISA signal, Anti-PSMA Fab” value (PSMA Fab (006 PSMA Fab) [8]) was 1.43.

B21: Phage-3672 (peptide-180 library clone) (peptide)
peptide: AAKYCEPSWMCYGF
With B21 the “Phage binding ELISA signal, Anti-PSMA Fab in presence of PSMA” value (PSMA Fab (006 PSMA Fab) [5]) was 0.105 and the “Phage binding ELISA signal, Anti-PSMA Fab” value (PSMA Fab (006 PSMA Fab) [6]) was 1.48.

B22: Phage-3686 (peptide)
peptide: ADMRCVPDWMCHGF
With B22 the “Phage binding ELISA signal, Anti-PSMA Fab with PSMA antigen” value (PSMA Fab (006 PSMA Fab) [3]) was 0.0874 and the “Phage binding ELISA signal, Anti-PSMA Fab” value (PSMA Fab (006 PSMA Fab) [4]) was 1.47.
